Measured values reported in patent US20020001857A1.
Values belong to the substance of their own block, whether it stands above or below them.

Tests used:
PHF-tau (human) [1] = target: PHF-tau (human) (UniProt P10636); assay: competition ELISA on captured PHF-tau; biotinylated AT8, unlabeled competitor AT120 at 10 ug/ml
PHF-tau (human) [2] = target: PHF-tau (human) (UniProt P10636); assay: competition ELISA on captured PHF-tau; biotinylated AT8, unlabeled competitor AT8 at 10 ug/ml
PHF-tau (human) [3] = target: PHF-tau (human) (UniProt P10636); assay: competition ELISA on captured PHF-tau; biotinylated BT2, unlabeled competitor AT120 at 10 ug/ml
PHF-tau (human) [4] = target: PHF-tau (human) (UniProt P10636); assay: competition ELISA on captured PHF-tau; biotinylated BT2, unlabeled competitor BT2 at 10 ug/ml
PHF-tau (human) [5] = target: PHF-tau (human) (UniProt P10636); assay: sandwich ELISA, AT120 coated, tau spiked in tau-negative CSF, detection with biotinylated BT2 and HT7
[6] = target: affinity-purified human normal tau (human) (UniProt P10636); assay: as above
PHF-tau (human) [7] = target: PHF-tau (human) (UniProt P10636); assay: sandwich ELISA, AT120 coated, no tau added (background), detection with biotinylated BT2 and HT7
[8] = target: affinity-purified human normal tau (human) (UniProt P10636); assay: as above
PHF-tau (human) [9] = target: PHF-tau (human) (UniProt P10636); assay: competition ELISA on captured PHF-tau; biotinylated AT120, unlabeled competitor AT120 at 10 ug/ml
PHF-tau (human) [10] = target: PHF-tau (human) (UniProt P10636); assay: competition ELISA on captured PHF-tau; biotinylated AT120, unlabeled competitor AT8 at 10 ug/ml

absorbance (PHF-tau (human) [1]): 0.372 absorbance | absorbance (PHF-tau (human) [2]): 0.001 absorbance
Substance: monoclonal antibody AT8

absorbance (PHF-tau (human) [3]): 0.543 absorbance | absorbance (PHF-tau (human) [4]): 0.054 absorbance
Substance: monoclonal antibody BT2

absorbance at 10 pg/ml (milliabsorbance units) (PHF-tau (human) [5]): 143 | absorbance at 20 pg/ml (milliabsorbance units) (PHF-tau (human) [5]): 257 | absorbance at 40 pg/ml (milliabsorbance units) (PHF-tau (human) [5]): 566 | absorbance at 80 pg/ml (milliabsorbance units) (PHF-tau (human) [5]): 901 | absorbance at 160 pg/ml (milliabsorbance units) (PHF-tau (human) [5]): 1680 | absorbance at 10 pg/ml (milliabsorbance units) [6]: 154 | absorbance at 20 pg/ml (milliabsorbance units) [6]: 256 | absorbance at 40 pg/ml (milliabsorbance units) [6]: 678 | absorbance at 80 pg/ml (milliabsorbance units) [6]: 970 | absorbance at 160 pg/ml (milliabsorbance units) [6]: 1610 | absorbance at 0 pg/ml (blank) (milliabsorbance units) (PHF-tau (human) [7]): 92 | absorbance at 0 pg/ml (blank) (milliabsorbance units) [8]: 87 | absorbance (PHF-tau (human) [9]): 0.001 absorbance | absorbance (PHF-tau (human) [10]): 0.476 absorbance
Substance: monoclonal antibody AT120
